Experimental findings from paper PMC8390506 are described below.

The experiment has as its target double-mutant TPX2 (2M-TPX2) (Xenopus laevis) (UniProt Q6NUF4). Briefly: BLI; Octet (ForteBio); TPX2 attached to sensors, importin concentration varied; normalized amplitudes; apparent Kd.

Sequence of importin-αΔIBB (truncated importin-α without the importin-β-binding domain) (domain or fragment) (P52170 71-522, stated change not applied): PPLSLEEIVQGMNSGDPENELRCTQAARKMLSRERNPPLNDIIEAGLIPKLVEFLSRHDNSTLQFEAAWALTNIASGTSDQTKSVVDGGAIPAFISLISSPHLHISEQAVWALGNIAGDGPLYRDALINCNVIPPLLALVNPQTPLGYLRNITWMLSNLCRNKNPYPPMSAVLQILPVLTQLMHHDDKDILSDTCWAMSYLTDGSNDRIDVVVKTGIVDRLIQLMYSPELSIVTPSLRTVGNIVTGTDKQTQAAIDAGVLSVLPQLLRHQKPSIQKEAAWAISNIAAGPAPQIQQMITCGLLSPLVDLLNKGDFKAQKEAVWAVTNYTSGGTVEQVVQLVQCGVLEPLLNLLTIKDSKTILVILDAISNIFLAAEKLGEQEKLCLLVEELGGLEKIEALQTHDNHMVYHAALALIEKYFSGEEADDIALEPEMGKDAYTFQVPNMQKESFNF

As for “importin-αΔIBB (truncated importin-α without the importin-β-binding domain) (domain or fragment)”, the Kd stood at 45 nM.
